In the supplement of paper PMC11316812:
± gives the standard deviation of the averaged measurements.

Key:
MCF7 = test: percentage of EdU-negative (G0-arrested) nuclei per well, 72 h; higher = more G0 arrest; details: reference: sequence is the full UniProt precursor, the tested protein was the secreted form or ectodomain
hTERT-HMEC = test: as above; details: reference: sequence is the full UniProt precursor, the tested protein was the secreted form or ectodomain
[1] = protein concentration 0.0282857 µM
[2] = protein concentration 0.282857 µM
[3] = protein concentration 0.0225 µM
[4] = protein concentration 0.03125 µM
[5] = protein concentration 0.3125 µM
[6] = protein concentration 0.0357143 µM
[7] = protein concentration 0.357143 µM
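Note: secreted proteins added to cultured cells, EdU pulse at the end, nuclei found by Hoechst imaging, EdU status from nuclear versus surrounding ring intensity ratio, PBS as neutral control.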

How did the “percentage of EdU-negative” value (MCF7; [1]) turn out when “MSSWSRQRPKSPGGIQPHVSRTLFLLLLLAASAWGVTLSPKDCQVFRSDHGSSISCQPPAEIPGYLPADTVHLAVEFFNLTHLPANLLQGASKLQELHLSSNGLESLSPEFLRPVPQLRVLDLTRNALTGLPPGLFQASATLDTLVLKENQLEVLEVSWLHGLKALGHLDLSGNRLRKLPPGLLANFTLLRTLDLGENQLETLPPDLLRGPLQLERLHLEGNKLQVLGKDLLLPQPDLRYLFLNGNKLARVAAGAFQGLRQLDMLDLSNNSLASVPEGLWASLGQPNWDMRDGFDISGNPWICDQNLSDLYRWLQAQKDKMFSQNDTRCAGPEAVKGQTLLAVAKSQ” was run?
Its value is 22.3 ± 2.4%.

And the “percentage of EdU-negative” value (MCF7; [2])?
The value was 25.7 ± 1.4%.

What about the “percentage of EdU-negative” value (hTERT-HMEC; [1]) of the same sequence?
Its value is 4.97 ± 0.88%.

What about the “percentage of EdU-negative” value (hTERT-HMEC; [2]) of the same sequence?
Its value is 6.814 ± 0.037%.

How did the “percentage of EdU-negative” value (MCF7; [3]) turn out when “MAVKKIAIFGATGQTGLTTLAQAVQAGYEVTVLVRDSSRLPSEGPRPAHVVVGDVLQAADVDKTVAGQDAVIVLLGTRNDLSPTTVMSEGARNIVAAMKAHGVDKVVACTSAFLLWDPTKVPPRLQAVTDDHIRMHKVLRESGLKYVAVMPPHIGDQPLTGAYTVTLDGRGPSRVISKHDLGHFMLRCLTTDEYDGHSTYPSHQYQ” was run?
Its value is 22.7 ± 3%.

What about the “percentage of EdU-negative” value (MCF7; protein concentration 0.225 µM) of the same sequence?
The value was 23.37 ± 0.19%.

And the “percentage of EdU-negative” value (hTERT-HMEC; [3])?
The value was 5.08 ± 0.64%.

And the “percentage of EdU-negative” value (hTERT-HMEC; protein concentration 0.225 µM)?
Its value is 5.64 ± 0.7%.

With “MQLRNPELHLGCALALRFLALVSWDIPGARALDNGLARTPTMGWLHWERFMCNLDCQEEPDSCISEKLFMEMAELMVSEGWKDAGYEYLCIDDCWMAPQRDSEGRLQADPQRFPHGIRQLANYVHSKGLKLGIYADVGNKTCAGFPGSFGYYDIDAQTFADWGVDLLKFDGCYCDSLENLADGYKHMSLALNRTGRSIVYSCEWPLYMWPFQKPNYTEIRQYCNHWRNFADIDDSWKSIKSILDWTSFNQERIVDVAGPGGWNDPDMLVIGNFGLSWNQQVTQMALWAIMAAPLFMSNDLRHISPQAKALLQDKDVIAINQDPLGKQGYQLRQGDNFEVWERPLSGLAWAVAMINRQEIGGPRSYTIAVASLGKGVACNPACFITQLLPVKRKLGFYEWTSRLRSHINPTGTVLLQLENTMQMSLKDLL” as the sequence, how does the “percentage of EdU-negative” value (MCF7; protein concentration 0.021 µM) read?
The value was 24.8 ± 0.73%.

What about the “percentage of EdU-negative” value (MCF7; protein concentration 0.21 µM) of the same sequence?
The value was 24.3 ± 0.28%.

And the “percentage of EdU-negative” value (hTERT-HMEC; protein concentration 0.021 µM)?
The value was 5.25 ± 0.8%.

And the “percentage of EdU-negative” value (hTERT-HMEC; protein concentration 0.21 µM)?
The value was 4.6 ± 0.74%.

With “MPLLWLRGFLLASCWIIVRSSPTPGSEGHSAAPDCPSCALAALPKDVPNSQPEMVEAVKKHILNMLHLKKRPDVTQPVPKAALLNAIRKLHVGKVGENGYVEIEDDIGRRAEMNELMEQTSEIITFAESGTARKTLHFEISKEGSDLSVVERAEVWLFLKVPKANRTRTKVTIRLFQQQKHPQGSLDTGEEAEEVGLKGERSELLLSEKVVDARKSTWHVFPVSSSIQRLLDQGKSSLDVRIACEQCQESGASLVLLGKKKKKEEEGEGKKKGGGEGGAGADEEKEQSHRPFLMLQARQSEDHPHRRRRRGLECDGKVNICCKKQFFVSFKDIGWNDWIIAPSGYHANYCEGECPSHIAGTSGSSLSFHSTVINHYRMRGHSPFANLKSCCVPTKLRPMSMLYYDDGQNIIKKDIQNMIVEECGCS” as the sequence, how does the “percentage of EdU-negative” value (MCF7; [4]) read?
The value was 26.6 ± 1.6%.

What about the “percentage of EdU-negative” value (MCF7; [5]) of the same sequence?
Its value is 27.8 ± 1.4%.

What about the “percentage of EdU-negative” value (hTERT-HMEC; [4]) of the same sequence?
The value was 5.64 ± 0.18%.

What about the “percentage of EdU-negative” value (hTERT-HMEC; [5]) of the same sequence?
The value was 5.29 ± 1.4%.

What does the source list for “MKGWGWLALLLGALLGTAWARRSQDLHCGACRALVDELEWEIAQVDPKKTIQMGSFRINPDGSQSVVEVPYARSEAHLTELLEEICDRMKEYGEQIDPSTHRKNYVRVVGRNGESSELDLQGIRIDSDISGTLKFACESIVEEYEDELIEFFSREADNVKDKLCSKRTDLCDHALHISHDEL [Q9Y2B0]”?
percentage of EdU-negative (MCF7; [3]): 23.4 ± 3.1%; percentage of EdU-negative (MCF7; protein concentration 0.225 µM): 25.3 ± 1.3%; percentage of EdU-negative (hTERT-HMEC; [3]): 5.14 ± 0.16%; percentage of EdU-negative (hTERT-HMEC; protein concentration 0.225 µM): 6.74 ± 0.6%

Which results are given for “MMVVLLGATTLVLVAVAPWVLSAAAGGKNLKSPQKVEVDIIDDNFILRWNRSDESVGNVTFSFDYQKTGMDNWIKLSGCQNITSTKCNFSSLKLNVYEEIKLRIRAEKENTSSWYEVDSFTPFRKAQIGPPEVHLEAEDKAIVIHISPGTKDSVMWALDGLSFTYSLVIWKNSSGVEERIENIYSRHKIYKLSPETTYCLKVKAALLTSWKIGVYSPVHCIKTTVENELPPPENIEVSVQNQNYVLKWDYTYANMTFQVQWLHAFLKRNPGNHLYKWKQIPDCENVKTTQCVFPQNVFQKGIYLLRVQASDGNNTSFWSEEIKFDTEIQAFLLPPVFNIRSLSDSFHIYIGAPKQSGNTPVIQDYPLIYEIIFWENTSNAERKIIEKKTDVTVPNLKPLTVYCVKARAHTMDEKLNKSSVFSDAVCEKTKPGNTSKIWLIVGICIALFALPFVIYAAKVFLRCINYVFFPSLKPSSSIDEYFSEQPLKNLLLSTSEEQIEKCFIIENISTIATVEETNQTDEDHKKYSSQTSQDSGNYSNEDESESKTSEELQQDFV”?
percentage of EdU-negative (MCF7; [6]): 23.4 ± 0.79%; percentage of EdU-negative (MCF7; [7]): 31.7 ± 1.5%; percentage of EdU-negative (hTERT-HMEC; [6]): 4.55 ± 0.7%; percentage of EdU-negative (hTERT-HMEC; [7]): 5.5 ± 0.82%
